Measurements published in patent US20180311371A1 (Hoffmann-La Roche, published 2018).

What was measured:
[1] = target: T1, human TPBG (trophoblast glycoprotein), full length, cell surface expressed (human, UniProt Q13641 32-420); assay: flow cytometry on SW620 clone 4 cells; ratio of MFI; replicate 2
T1 construct: On MCF7, H1975 and BxPC-3 tumour cells, on SW620 clone 4 and on CHO-K1 cells transfected with full length human TPBG; also called huTPBG; 5T4
T1 sequence: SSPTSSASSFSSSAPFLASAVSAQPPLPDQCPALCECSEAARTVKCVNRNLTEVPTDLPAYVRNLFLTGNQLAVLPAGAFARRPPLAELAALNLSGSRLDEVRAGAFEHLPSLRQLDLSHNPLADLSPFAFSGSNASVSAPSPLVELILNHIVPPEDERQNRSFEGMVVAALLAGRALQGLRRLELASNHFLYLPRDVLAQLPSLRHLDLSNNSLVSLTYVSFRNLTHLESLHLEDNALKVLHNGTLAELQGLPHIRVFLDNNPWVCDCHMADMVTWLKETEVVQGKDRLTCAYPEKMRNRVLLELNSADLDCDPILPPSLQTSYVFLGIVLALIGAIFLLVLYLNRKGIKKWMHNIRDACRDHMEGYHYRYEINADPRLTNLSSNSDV

[2] = target: T2, recombinant extracellular domain of minipig TPBG (Biacore analyte) (minipig); assay: SPR Biacore T200; Fab captured by anti-huFab, minipig TPBG injected
T2 chain: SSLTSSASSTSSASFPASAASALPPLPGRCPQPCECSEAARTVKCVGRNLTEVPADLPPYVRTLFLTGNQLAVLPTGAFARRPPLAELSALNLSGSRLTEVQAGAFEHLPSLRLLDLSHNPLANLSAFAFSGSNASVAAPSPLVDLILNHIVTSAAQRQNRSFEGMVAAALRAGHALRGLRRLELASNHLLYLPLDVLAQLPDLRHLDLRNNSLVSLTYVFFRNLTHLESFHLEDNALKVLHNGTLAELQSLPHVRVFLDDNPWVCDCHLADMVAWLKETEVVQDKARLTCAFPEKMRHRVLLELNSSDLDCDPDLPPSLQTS

[3] = target: T1, human TPBG (trophoblast glycoprotein), …; assay: cell-based or functional assay
[4] = target: T3, minipig TPBG, full length, cell surface expressed on CHO-K1 cells (minipig); assay: cell-based or functional assay
T3 chain: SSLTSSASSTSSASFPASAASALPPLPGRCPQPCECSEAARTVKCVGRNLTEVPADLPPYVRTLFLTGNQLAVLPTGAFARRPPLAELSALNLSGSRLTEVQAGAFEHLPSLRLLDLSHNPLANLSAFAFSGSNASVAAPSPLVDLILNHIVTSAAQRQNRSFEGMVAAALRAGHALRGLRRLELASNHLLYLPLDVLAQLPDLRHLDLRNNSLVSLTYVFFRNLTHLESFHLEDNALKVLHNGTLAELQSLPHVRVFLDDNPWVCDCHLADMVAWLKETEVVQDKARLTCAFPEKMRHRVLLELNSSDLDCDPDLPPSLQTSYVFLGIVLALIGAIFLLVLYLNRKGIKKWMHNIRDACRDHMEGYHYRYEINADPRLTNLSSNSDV

[5] = target: T1, human TPBG (trophoblast glycoprotein), …; assay: flow cytometry on SW620 clone 4 cells; ratio of MFI; replicate 1

B1: anti-TPBG antibody 091, Fab fragment (Fab, V domains shown)
VH: EVHLLESGGGLVHPGGSLRLSCAASGFTFRSDAMHWVRQAPGKGLEWVSGVSGSGGSPYYADSVKGRFTISRDDSKTTLYLQMNSLRAEDTAVYYCATGGSIAGSYYYYPMDVWGQGTTVTVSS
VL: DIQMTQSPSSLSASVGDRVTITCQASQDISNYLNWYQQKPGKAPKLLIYAASTLQIGVPSRFSGSGSGTDFTFTISSLQPEDFATYYCQQANSFPLTFGGGTKVEIK
notes: also called Fab2
[1]
  Fold change pH 7.2 vs pH 5.5: 1 fold
[2]
  Kd: 1.74 nM
  koff: 0.000205 s⁻¹
  kon: 118000 M⁻¹ s⁻¹
[3]
  EC50 cytotoxicity, Fab-PE sandwich construct, MCF7: 0.414 nM
  X-fold higher potency compared to TPBG(H8)PE, MCF7, first experiment: 3 fold
  X-fold higher potency compared to TPBG(H8)PE, MCF7, second experiment: 2.7 fold
[4]
  EC50 cytotoxicity, Fab + anti-kappa-Fab-PE, CHO-K1/minipig TPBG, replicate 1: 1.05 nM
  EC50 cytotoxicity, Fab + anti-kappa-Fab-PE, CHO-K1/minipig TPBG, replicate 2: 1.2 nM
[5]
  Fold change pH 7.2 vs pH 5.5: 0.9 fold
